Values quoted from earlier work, collected in article PMC8472222.

Target: Rad57 (Saccharomyces cerevisiae) (UniProt P25301)
Chain of UniProt P25301 (P25301 whole entry): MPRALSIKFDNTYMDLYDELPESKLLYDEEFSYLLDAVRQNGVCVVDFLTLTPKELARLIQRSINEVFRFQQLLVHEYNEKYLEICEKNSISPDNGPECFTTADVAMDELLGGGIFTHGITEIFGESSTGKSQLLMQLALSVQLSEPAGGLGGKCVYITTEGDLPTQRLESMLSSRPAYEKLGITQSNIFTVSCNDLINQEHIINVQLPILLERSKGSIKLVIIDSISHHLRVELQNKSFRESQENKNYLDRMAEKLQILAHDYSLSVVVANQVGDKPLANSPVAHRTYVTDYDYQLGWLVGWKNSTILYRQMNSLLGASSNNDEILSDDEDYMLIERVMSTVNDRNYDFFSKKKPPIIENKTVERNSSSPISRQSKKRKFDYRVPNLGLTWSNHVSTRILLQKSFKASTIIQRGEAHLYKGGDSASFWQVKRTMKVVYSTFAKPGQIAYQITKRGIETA

Rad55 (from UniProt P38953)
Kd: < 200 pM
